Assays:
[1] = molecular target: EGF receptor (ErbB1) on HeLa 229 cells (UniProt P00533); assay: cell-based or functional assay
[2] = molecular target: ErbB1 receptor (EGF receptor) on HeLa cells (UniProt P00533); assay: cell-based or functional assay

Sequence of PEGylated betacellulin produced using the mPEG-ButyrALD-20K reagent (P35070 other isoform, or with tags, fused parts or gaps limits assumed): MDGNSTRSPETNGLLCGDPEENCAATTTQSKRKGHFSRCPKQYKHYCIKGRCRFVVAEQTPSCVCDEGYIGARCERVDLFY
Sequence of PEGylated betacellulin produced using the mPEG-SMB-20K reagent (P35070 other isoform, or with tags, fused parts or gaps limits assumed): as above
Sequence of Unreacted (SEC fraction of the PEGylation reactions, presumably unreacted betacellulin) (P35070 other isoform, or with tags, fused parts or gaps limits assumed): as above

Substance | activity % (phospho-EGFR pY1068 ELISA, HeLa 229 cells) [1] [%] | activity % (phospho-EGFR pY1068 ELISA, HeLa 229 cells; SEC column S200) [1] [%] | betacellulin activity in the phospho-EGFR pY1068 ELISA on HeLa 229 cells ([2]; scale: % reduction against unreacted betacellulin) | ELISA activity is equivalent to [BTC] nM (phospho-EGFR pY1068 ELISA, HeLa 229 cells; 40 nM submitted; SEC column S200) [1] [nM] | betacellulin activity in the phospho-EGFR pY1068 ELISA on HeLa 229 cells (fold lower than unreacted betacellulin) [2] | ELISA activity is equivalent to [BTC] nM (phospho-EGFR pY1068 ELISA, HeLa 229 cells; 40 nM submitted; SEC column S70) [1] [nM]
PEGylated betacellulin produced using the mPEG-ButyrALD-20K reagent (from UniProt P35070 32-111) (ligand) | 58 | 55 | < 50 | – | – | –
PEGylated betacellulin produced using the mPEG-SMB-20K reagent (from UniProt P35070 32-111) (ligand) | 26 | 34 | – | 14 | 3 | –
Unreacted (SEC fraction of the PEGylation reactions, presumably unreacted betacellulin) (from UniProt P35070 32-111) (ligand) | 0 | – | – | – | – | 0

Source: patent publication US20110319324A1
